Assay results published in PMC4450493, “Binding of undamaged double stranded DNA to vaccinia virus uracil-DNA Glycosylase”.

Target: D4 (vaccinia virus uracil-DNA glycosylase, tfD4) (Vaccinia virus, UniProt P04303 1-218)
Assay: X-ray crystallography (2.89 A); undamaged DNA without uracil; glycerol in active sites; no A20
Settings: protein: recombinant; tags: His6 tag cleaved; three vector-encoded residues GSH remain at N-terminus; chain copies: 2; blunt; palindromic, two copies of the same strand

B1: self-complementary 12mer dsDNA (dsDNA)
DNA 1: GCAAACGTTTGC
DNA 2: GCAAACGTTTGC
Question: Does B1 bind?
Answer: Result: binds
